T1: hCD112R mFC recombinant protein (human; murine, UniProt Q6DKI7 41-160)
T1 construct: range 41-160; expressed in 293E cells; also called hCD112R ECD mFC; hCD112R-ECD-mFC; not shown: murine IgG2a Fc domain (MX2-mFc vector)
T1 sequence (looked up): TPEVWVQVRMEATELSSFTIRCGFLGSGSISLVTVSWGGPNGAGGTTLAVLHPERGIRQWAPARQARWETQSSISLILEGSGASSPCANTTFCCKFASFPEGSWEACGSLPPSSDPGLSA

T2: human CD112R on Jurkat CD112R effector cells (human, UniProt Q6DKI7 1-326)
T2 sequence (looked up): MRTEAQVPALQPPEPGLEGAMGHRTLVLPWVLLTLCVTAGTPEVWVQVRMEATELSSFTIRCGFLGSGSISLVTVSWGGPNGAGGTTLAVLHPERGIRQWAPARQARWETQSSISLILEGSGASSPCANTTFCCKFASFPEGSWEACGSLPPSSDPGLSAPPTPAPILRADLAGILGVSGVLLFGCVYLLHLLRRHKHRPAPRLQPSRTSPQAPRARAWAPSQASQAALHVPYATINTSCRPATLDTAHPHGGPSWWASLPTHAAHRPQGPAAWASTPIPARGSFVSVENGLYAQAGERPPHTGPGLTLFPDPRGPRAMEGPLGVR


What was measured:
[1] = biological target: T1, hCD112R mFC recombinant protein; assay: FACS competition, hCD112R mFc on CHO CD112 cells
Description: Unbound antibodies were then washed with a staining buffer and the cells were incubated with 1% (v/v) goat anti-mouse IgG Fc fluorescent secondary antibodies (Jackson ImmunoResearch) prepared in a staining buffer at 4° C. for 30 min in the dark. Finally, the cells were collected by using a flow cytometer, and the fluorescent antibodies bound to the cell surface were detected. Raw data were analyzed by using FlowJo to obtain MFI values, and a four-parameter curve fitting was performed by using GraphPad Prism software to obtain IC₅₀ values.

[2] = biological target: T1, hCD112R mFC recombinant protein; assay: Biacore T200, antibody captured, hCD112R mFc injected
Description: Biacore T200 was used to assay the binding affinity of the anti-CD112R hybridoma antibodies for the recombinant hCD112R mFc protein. […] antibody fragments (Jackson ImmunoResearch) were coupled to the surface of a CM5 chip, and the anti-CD112R hybridoma antibodies were each captured by using the chip, after which recombinant hCD112R mFc proteins at different concentrations were injected into the CM5 chip.

[3] = biological target: T2, human CD112R on Jurkat CD112R effector …; assay: cell-based or functional assay

Binder | IC50 [1] [µg/mL] | Kd [2] [pM] | EC50, CD112R/CD112 NFAT-luciferase reporter [3] [µg/mL]
1D11.1 (antibody, V domains shown, murine hybridoma antibody) VH: EVQLQQSGPELVKPGASVKISCKASGYPFINYNIHWLRQSRGKSLEWIGYVYPYNGVPGYNQKFKSKATLTADNSFSTAYMEFRSLTSEDSAVYFCARERGRDYFDSWGQGTSLTVSS VL: DIQLTQSPASLSVSVGETVTITCRVSANIYSNLVWYHQRQGKSPQLLVYGGTNLADGVPSRFSGSGSGTQFSLKINSLQSEDFGSYHCQHFWSTPYTFGGGTKLEIK | 0.207 | 23.6 | 
7C2.1 (antibody, V domains shown) VH: DVKLVESGGGLVKLGGSLKLSCAASGFTFSSYHMSWIRQTPEKRLELVAAINSNGINTYYLDTVKGRFTISRDNAKNTLYLQMSSLKSEDTALYYCARHEDYYGFAMDYWGQGTSVTVSS VL: SIVMTQTPKFLLVSAGDRVTITCKASQSVSNDVAWYQQKPGQSPKLLMYYVSNRFTGVPDRFTGSGYGTDFTFTINTVQAEDLAVYFCQQAYRSPWTFGGGTKLEIK |  |  | 0.0379
3D2.1 (antibody, V domains shown) VH: DVQLVESGGGLVKLGGSLKLSCVASGFTFSSYHMSWIRQTPEKRLELVAAINSNDINTYYLDTVKGRFTISRDIAKNTLHLQMSSLKSEDTALYYCARHEDYYGFAMDYWGQGTSVTVSS VL: DIQLTQSPASLSVSVGETVTITCRVSANIYSNLVWYHQRQGKSPQLLVYGGTNLADGVPSRFSGSGSGTQFSLKINSLQSEDFGSYHCQHFWSTPYTFGGGTKLEIK |  |  | 0.0493
5C10.1 (antibody, V domains shown) VH: DVKLVESGGGLVKLGGSLKLSCAASGFTFSSYHMSWVRQTPEKRLELVAAISRDGDSTYYPDTVKGRFTISRDDAENTLYLQMSSLKSEDTALYYCSRHEDYFGFAMDSWGQGTSVTVSS VL: SIVMTQTPKFLLVSAGDRVTITCKASQSVTNDVAWYQQKPGQSPKLLMYYVSNHYTGVPDRFIGSGYGTDFTFTISTVQAEDLAVYFCQQAYRSPWTFGGGTKLEIK |  |  | 0.0404
5B1.1 (antibody, V domains shown, murine hybridoma antibody) VH: EVQLQQSGAELVRSGTSVTLSCTASGFNIRDYFIHWVKQRPEQGLEWIGWIIPASGDTDCAPIFQGKATLTADTFSNTAYLHLNSLTSEDTAVYYCNTWVWSPYAVDYWGQGTSVTVSS VL: DIVMTQFPSSLSVPVGEKVTMNCKSSQSLLNSGNQKNFLAWYQQKPGQPPKLLIYGASTRESGVPYRFTGSGSGTDFTLTISSVQAEDLAVYYCQNDHSYPWTFGGGTKLEIK | 0.147 | 16.3 | 

The next lines start with the values.

IC50 [1] [µg/mL] | Kd [2] [pM] | EC50, CD112R/CD112 NFAT-luciferase reporter [3] [µg/mL] | Binder
0.148 | 15.8 |  | 8D3.1 (antibody, V domains shown, murine hybridoma antibody) VH: QIQLVQSGPELKKPGETVKISCKASGYTFTDYSMHWVKQAPGKGLKWVGWISTETAQPTYADDFRGRFAFSLETSASTAYLQINNLRNEDTATYFCATGNYGWYFSVWGAGTTVTVSS VL: ENVLTQSPAIMSASPGEKVTMTCRATSGVSSSYLFWYQQKSGASPKIWIYSTSNLASGVPTRFSGSGSGTSYSLTISSVEAEDAATYYCQQYSGYPYTFGGGTKLEIK
 |  | 0.0507 | 6A10.1 (antibody, V domains shown) VH: DVKLVESGGGLVKLGGSLKLSCAASGFTFSSYHMSWVRQTPEKRLELVAAINSNVISTYYLDTVKGRFTISRDNAKNTLYLQMSSLKSEDTALYYCARHEDYYGFAMDYWGQGTSVTVSS VL: SIVMTQTPKFLLVSAGDRVTITCKASQSVSNDVAWYQEKPGQSPKLLMYYVSHRFTGVPDRFTGSGYGTDFTFTINTVQAEDLAVYFCHQAYRSPWTFGGGTKLEIK
0.272 | 13.4 |  | 6D2.1 (antibody, V domains shown, murine hybridoma antibody) VH: EVQLQQSGPELVKPGASVKISCKASGYTFTDYNIHWVKQSHGKRPDWIGYNYPYNGGAGYNQNFRSRATLTVDKFSSTAYMELRSLTSEDSAVYYCAGEEVRRGPFYFWGQGTSVTVSS VL: DIQMTQSPDSLSASVGETVTITCRTSENIYSFLVWYQQKQGKSPQLLVYNAKTLAEGVPSRFSGSGSGTQFSLKINSLQPEDFGTYYCQHYYGTPYTFGGGTKLEIK
